The experiment deals with T1, Drosophila septin polypeptide Pnut (Drosophila (endogenous in embryos), UniProt P40797 1-539).
T1 sequence (looked up): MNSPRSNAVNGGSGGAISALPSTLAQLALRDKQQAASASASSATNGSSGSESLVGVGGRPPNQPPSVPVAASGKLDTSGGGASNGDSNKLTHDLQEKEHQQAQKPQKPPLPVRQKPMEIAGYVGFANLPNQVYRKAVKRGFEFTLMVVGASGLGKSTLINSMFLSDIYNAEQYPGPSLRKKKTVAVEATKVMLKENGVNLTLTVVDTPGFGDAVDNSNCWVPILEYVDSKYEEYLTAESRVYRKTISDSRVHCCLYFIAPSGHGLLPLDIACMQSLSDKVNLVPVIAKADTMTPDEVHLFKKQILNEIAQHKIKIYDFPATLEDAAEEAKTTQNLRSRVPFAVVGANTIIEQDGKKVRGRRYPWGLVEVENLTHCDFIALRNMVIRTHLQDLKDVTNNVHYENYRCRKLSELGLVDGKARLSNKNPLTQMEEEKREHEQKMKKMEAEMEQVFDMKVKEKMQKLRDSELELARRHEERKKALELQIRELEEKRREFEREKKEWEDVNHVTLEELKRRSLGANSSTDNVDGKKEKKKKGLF
Put plainly: co-IP.

B1: Drosophila septin polypeptide Sep1 (natural protein, Drosophila (endogenous in embryos), UniProt P42207 1-361, looked up)
chain: MADTKGFSSIETPGYVGFANLPNQVHRKSVKKGFEFTLMVVGESGLGKSTLVNSLFLTDLYPERIIPDAIEKQKQTVKLEASTVEIEERGVKLRLTVVDTPGFGDAIDNSNSFGAILEYIDEQYERFLRDESGLNRRNIVDNRIHCCFYFISPFGHGLKPLDVEFMKKLHSKVNIVPVIAKADCLTKKEILRLKCRIMQEIESHGIKIYPLPDCDSDEDEDYKEQVKQLKEAVPFAVCGANTLLEVKGKKVRGRLYPWGVVEVENPDHCDFIKLRTMLITHMQDLQEVTQEVHYENYRSDRLAKGIKGKENGVKAERDSSSQVVSNSVLGEKDRILQEKEAELRRMQEMLAQMQARMQAQQ
Turning to B1, the “stoichiometry N” value was approximately 1.

B2: Drosophila septin polypeptide Sep2 (natural protein, Drosophila (endogenous in embryos), UniProt P54359 1-419, looked up)
chain: MSVEVDFVDKKEVHLRTLKQSGHVGFDSLPDQLVNKSVQNGFVFNVMCIGETGLGKSTLMDTLFNTSFESTPSPHTLPSVKLKAHTYELQESNVRLKLTICDTVGYGDQINKDDSFKAVVDYIDAQFENYLQEELKIKRSLVTCHDSRIHICLYFICPTGHGLKSLDLVCMKKLDSKVNIIPVIAKADTISKVELQRFKAKIIQELNANGVHIYQFPTDDETVAETNTSMNSHIPFAVVGSTEFIKVGNKLIRARQYPWGTVQVENETHCDFVKLREMLIRTNMEDMREKTHTRHYELYRQKRLEQMGFSDVDSDNKPISFQQTFEAKRSNHLAELQSKEEEVRQMFVQRVKEKEAELKESEKDLHAKFEKLKRDHAEEKRKLEESRKALEEDYLDFQRRKQQLATAHHTLTLGKSKKK
Regarding B2, the “stoichiometry N” value was approximately 1.

The record behind these values is article PMC2120824 (The Journal of Cell Biology, 1996).
